Target: T1, streptavidin (UniProt P22629 37-163, limits assumed)
T1 construct: Immobilised on column material; also called streptavidin column; streptavidin matrix
Assay: streptavidin column pull-down, SDS gel
Text: FIG. 11 is a photographic representation of LHL purified via kappa-loaded streptavidin column as shown on a silver stained 20% w/v polyacrylamide SDS PHAST-gel. LHL= LHL alone plus streptavidin matrix; LHL-kappa=LHL purified on the kappa-loaded streptavidin matrix; kappa=kappa alone bound to streptavidin matrix.

T1 sequence (P22629 37-163 limits assumed): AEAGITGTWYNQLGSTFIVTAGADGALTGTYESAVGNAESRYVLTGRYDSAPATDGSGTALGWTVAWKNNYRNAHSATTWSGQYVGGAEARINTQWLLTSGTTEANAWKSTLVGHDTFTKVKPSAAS

B1: LHL (designed binder)
chain: APKDNTEEVTIKANLIFANGSTQTAEFKGTFEKATSEAYAYADTLKKDNGEYTVDVADKGYTLNIKFAGKEATNRNTDGSTDYGILQINSRWGGLTLKEEVTIKANLIFANGSTQTAEFKGTFEKATSEAYAYADTLKKDNGEYTVDVADKGYTLNIKFAG
notes: Expressed in E. coli from pASK75; LHL carries no strep-tag; also called growth factor LHL
binding result: no binding

— patent US6521741 (FRANK KOENTGEN, dated 2003)
